# Measurements taken from US20250197510A1 (published 2025).
# T1: FLT3 on Nalm16 cells (human, UniProt P36888 27-993)
# T1 construct: whole, on cells; Also used for FLT3 on primary leukemic cells of patients in the functional rows; also called NALM16 (FLT3+); FLT3 on leukemic cells
# T1 sequence (looked up): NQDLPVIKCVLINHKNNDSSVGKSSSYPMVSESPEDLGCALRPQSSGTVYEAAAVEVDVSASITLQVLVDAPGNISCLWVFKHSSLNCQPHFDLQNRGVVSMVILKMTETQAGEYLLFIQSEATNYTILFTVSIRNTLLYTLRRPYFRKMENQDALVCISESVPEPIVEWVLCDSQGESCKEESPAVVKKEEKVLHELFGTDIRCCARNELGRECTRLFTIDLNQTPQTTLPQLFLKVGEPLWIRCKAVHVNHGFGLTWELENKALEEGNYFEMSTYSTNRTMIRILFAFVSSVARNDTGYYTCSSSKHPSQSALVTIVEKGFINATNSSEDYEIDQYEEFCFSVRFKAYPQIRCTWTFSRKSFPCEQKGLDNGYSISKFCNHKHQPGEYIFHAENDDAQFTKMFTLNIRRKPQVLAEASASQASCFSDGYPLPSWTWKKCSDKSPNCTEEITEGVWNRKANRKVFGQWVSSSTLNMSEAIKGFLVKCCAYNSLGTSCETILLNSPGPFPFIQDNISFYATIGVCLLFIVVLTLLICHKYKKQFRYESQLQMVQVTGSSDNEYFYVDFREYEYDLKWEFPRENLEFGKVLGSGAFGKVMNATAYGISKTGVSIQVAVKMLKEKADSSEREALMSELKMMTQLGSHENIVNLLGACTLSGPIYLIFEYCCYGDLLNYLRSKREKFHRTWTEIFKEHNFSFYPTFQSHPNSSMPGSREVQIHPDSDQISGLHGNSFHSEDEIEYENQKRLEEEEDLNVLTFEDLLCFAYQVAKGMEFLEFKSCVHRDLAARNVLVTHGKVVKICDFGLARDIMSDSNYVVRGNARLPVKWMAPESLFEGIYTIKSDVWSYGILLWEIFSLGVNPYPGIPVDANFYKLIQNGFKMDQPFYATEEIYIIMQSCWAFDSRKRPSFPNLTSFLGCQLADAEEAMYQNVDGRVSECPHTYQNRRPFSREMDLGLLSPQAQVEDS
# B1: V6-V6 (bispecific antibody, human IgG1, kappa)
# heavy: QVQLQQPGAELVKPGASLKLSCKSSGYTFTSYWMHWVRQRPGHGLEWIGEIDPSDSYKDYNQKFKDKATLTVDRSSNTAYMHLSSLTSDDSAVYYCARAITTTPFDFWGQGTTLTVSSASTKGPSVFPLAPSSKSTSGGTAALGCLVKDYFPEPVTVSWNSGALTSGVHTFPAVLQSSGLYSLSSVVTVPSSSLGTQTYICNVNHKPSNTKVDKKVEPKSCDKTHTCPPCPAPPVAGPSVFLFPPKPKDTLMISRTPEVTCVVVGVSHEDPEVKFNWYVDGVEVHNAKTKPREEQYNSTYRVVSVLTVLHQDWLNGKEYKCKVSNKQLPSPIEKTISKAKGQPREPQVYTLPPSRDELTKNQVSLTCLVKGFYPSDIAVEWESNGQPENNYKTTPPVLDSDGSFFLYSKLTVDKSRWQQGNVFSCSVMHEALHNHYTQKSLSLSPGKSGDIQMTQSPSSLSASVGDRVTITCRASQDIRNYLNWYQQKPGKAPKLLIYYTSRLESGVPSRFSGSGSGTDYTLTISSLQPEDFATYYCQQGNTLPWTFGQGTKVEIKGGGGSGGGGSGGGGSEVQLVESGGGLVQPGGSLRLSCAASGYSFTGYTMNWVRQAPGKGLEWVALINPYKGVSTYNQKFKDRFTISVDKSKNTAYLQMNSLRAEDTAVYYCARSGYYGDSDWYFDVWGQGTLVTVSS
# light: DIVLTQSPATLSVTPGDSVSLSCRASQSISNNLHWYQQKSHESPRLLIKYASQSISGIPSRFSGSGSGTDFTLSINSVETEDFGVYFCQQSNTWPYTFGGGTKLEIKRTVAAPSVFIFPPSDEQLKSGTASVVCLLNNFYPREAKVQWKVDNALQSGNSQESVTEQDSKDSTYSLSSTLTLSKADYEKHKVYACEVTHQGLSSPVTKSFNRGEC
# notes: also called CC-2; FLT3 (4G8) x CD3 (humanized hUCHT1) bispecific IgGsc
# Molecular target: T1, FLT3 on Nalm16 cells
# Assay: flow cytometry on NALM16 (FLT3+) cells, PE-conjugated anti human Fcγ secondary antibody
# Experimental: In addition, antibody binding affinity was also tested using binding of the antibody to its target(s) as expressed on cells. Analyzed is the binding of CC-2 variants to Nalm16 cells expressing FLT3 (FIG. 4) or Jurkat cells expressing CD3 (FIG. 6). Variants V1 to V9 (with V6 being V6-V6) were produced after transient transfection of CHO cells using the insert sequences listed above. The antibodies were purified by protein A affinity-and size exclusion-chromatography. […] To measure antibody binding to FLT3 and CD3 NALM16 (FLT3+) and Jurkat (CD3+) cells were incubated with the respective variants for 30 min, washed, stained with a goat anti human Fcγ-specific and PE-conjugated secondary antibody (Jackson Immuno Research), washed again and analyzed by flow cytometry (FACSCalibur, BD Biosciences).
binder,measurement,value
B1,EC50,~1 nM
